In the supplement of paper PMC12764529:
± gives the half width of the 95% confidence interval.

Legend:
[1] = folding stability dG unfold from chymotrypsin proteolysis; higher = more stable
Outline: (§1)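 Unfolding free energy was derived, per protease or combined, against a sequence-predicted unfolded-state K50 and a shared folded-state K50, starting from K50 inferred by Bayesian fitting of sequencing counts. Digestion with trypsin and chymotrypsin was carried out on designed mini-proteins under 80 residues without cysteine in a PA-tagged cDNA display construct. Only designs with AlphaFold2 dimer inter-PAE above 15 were kept.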

[2] = folding stability dG unfold (combined trypsin and chymotrypsin); higher = more stable
Outline: as §1

[3] = folding stability dG unfold from trypsin proteolysis; higher = more stable
Outline: as §1

| Sequence | folding stability dG unfold [1] [kcal/mol] | folding stability dG unfold [2] [kcal/mol] | folding stability dG unfold [3] [kcal/mol] |
| --- | --- | --- | --- |
| SAGGMPVVIEIHVPKDKEEELARLIRRLLSELGAEVRVERFEDGIKVTAVLPDGTVIELHIVDDEKASAGGS [r16_406_TrMRF] | 4.03 ± 0.17 | 4.24 ± 0.19 | 4.29 ± 0.21 |
| SAGGMQKAIDIAKELGWKILDVDPEKKVVKVKPPDSDVEVTITVDDESTVTITTKNPGSDVVETIPESAGGS [r16_197_JUSTAS] | 1.47 ± 0.056 | 1.4 ± 0.16 | 1.38 ± 0.091 |
| SAGGMRIEVEIEEVRELPDGRLVFRVRARIELKVRVLERDENGRWRELPEEEVTVELEVEVEVFLPPSAGGS [r16_693_TrROS_Hall] | 5.08 ± 0.21 | 4.75 ± 0.3 | 3.97 ± 0.19 |
| SAGGMRVERSTSPSGEPVLLITLYLPDGTRVAEAPLRLDPARGGLTEEELEAVLKEIDLPEDVEVELRSAGG [r13_479_JUSTAS] | 0.468 ± 0.16 | 0.482 ± 0.14 | 0.517 ± 0.11 |
| SAGGMSEALLADPTVEKVELFPSPGVTVYYRPETGTWLIQPPDGSVEEIKMTPEELEKLIADGLKPASAGGS [r16_745_JUSTAS] | 0.588 ± 0.23 | 0.923 ± 0.1 | 0.839 ± 0.11 |
| SAGGMSIEELLKEAGYEVTVEEEEVDGKLRLKITIKANGKTLVIEVPESDAEEVLREIAKALGLEPESAGGS [r8_226_TrROS_Hall] | 3.01 ± 0.047 | 3.53 ± 0.18 | 4.2 ± 0.42 |
| SAGGMSITLTPDDGSTLTIPLSDPTLSLEEVVQMVVDKQEGAVNIQVTITFPDSEVTKTYTIPSPGGSAGGS [r16_216_JUSTAS] | 0.275 ± 0.13 | 0.605 ± 0.13 | 0.846 ± 0.041 |
| SAGGMSLSDPRDIRKAAKLKEIEILVKELNDKGIEVKLDEISFIEGTEEITAIVTFPDGTKYEITINSAGGS [r8_277_TrMRF] | 1.02 ± 0.018 | 1.42 ± 0.075 | 1.85 ± 0.042 |
| SAGGMSPEELASLSPEERRAVVEEALRERLARERPGAPPDFALEDVPVTVRDPATGTTTTVTVRLEAASAGG [r13_555_JUSTAS] | 0.109 ± 0.14 | 0.177 ± 0.16 | 0.384 ± 0.11 |
| SAGGMSPELAADPNVKRVLRFPEPGVFLAYYPEKGLLLLTPPDGKVLLIEAKPEEAEKLVESGLKPESAGGS [r16_745_TrMRF] | -0.446 ± 0.19 | -0.0606 ± 0.13 | 0.028 ± 0.12 |
| SAGGMSPVKVAEKTYVIPLPSSMTKEEAKEEVKKELVPKGIDKIDIPISEDPNKGTLIIKVTVYKYPNESAG [r5_924_JUSTAS] | 0.757 ± 0.27 | 0.49 ± 0.35 | 0.297 ± 0.2 |
| SAGGMSSSSYTYTTPLSSLKAAHPDLSEEELLALAKEAAKAALEAEGVPVSSVTATLAPDGTLTIVDSAGGS [r8_368_JUSTAS] | 0.634 ± 0.12 | 0.834 ± 0.14 | 0.862 ± 0.065 |
| SAGGMSTTKTVTSGGSTVTITTEPLPDGTTLSTVTVKSGGSPVTTITIPTSQLGEVAAAGGFAPADLLSAGG [r13_108_JUSTAS] | 0.172 ± 0.055 | 0.15 ± 0.065 | 0.0387 ± 0.054 |
| SAGGMSTTYTLKYPGTTVTVTFNPGSVTVDDTDPANPVTKPLPVPPGKPLTLAEVKAALAAAGYAVAESAGG [r13_687_JUSTAS] | 0.0182 ± 0.33 | 0.0161 ± 0.21 | -0.204 ± 0.15 |
| SAGGMSVKIEEKTHPETNEITINVEYDDIEKAKKEIAEKIKKENGNIPVTLVDKNGKPITIPLKELISAGGS [r8_236_JUSTAS] | 0.368 ± 0.03 | 0.317 ± 0.099 | 0.0225 ± 0.087 |
| SAGGMSVRFRFTDEDDRIHVDEIIPGEGIMRVVVEGEDRPLVFTIDAPPDAAIQLIRDLFDGPFEVEASAGG [r13_141_TrMRF] | 0.849 ± 0.11 | 0.596 ± 0.095 | -0.187 ± 0.26 |
| SAGGMSVTFEKEDKTYVITFEPSPEGGYLVTLEVLDPKTGEAKPVATAEFTEGSLEDAVVALLAAEESAGGS [r16_378_TrMRF] | 3.67 ± 0.08 | 3.7 ± 0.12 | 4.08 ± 0.3 |
| SAGGMSVVIPVRPEDREEVRELLEALPSEDVKVVIYNPVTGEKREVTPEEARALLEATDEPLVIEVRSAGGS [r16_263_TrMRF] | 1.89 ± 0.023 | 1.84 ± 0.041 | 1.68 ± 0.046 |
